How the values were obtained:
[1] = molecular target: receptor for activated protein C kinase 1 (RACK1) (human (endogenous in Caco-2)) (UniProt P63244)
[2] = molecular target: receptor for activated protein C kinase 1 (RACK1) (human (endogenous in Caco-2)) (UniProt P63244); remark: listed apart in the source

**Q.** Which results are given for “recombinant Trichinella spiralis serine proteinase with GST tag (rTsSPc)”?
**A.** inhibition rate of anti-RACK1 antibody on T. spiralis IIL invasion of the Caco-2 monolayer, compared to the PBS group [1]: 5.12%; inhibition rate of the RACK1 inhibitor HO on T. spiralis IIL invasion of the Caco-2 monolayer, compared to the PBS group [1]: 7.37%

**Q.** Which results are given for “recombinant Trichinella spiralis serine proteinase with GST tag (rTsSPc) (enzyme)”?
**A.** expression level of RACK1 in Caco-2 cells treated with rTsSPc, Western blot, increase compared to the PBS group [2]: 2.11 folds; p-ERK1/2 level in Caco-2 cells treated with rTsSPc, Western blot, increase compared to the PBS group [2]: 18.3 folds

Source: article PMC10798628
